From patent US20260256923, “NEW RECRUITMENT ELEMENT OF UBIQUITIN LIGASE AND USE THEREOF” (SHENZHEN LINGGENE BIOTECH CO., LTD., published 2026)

Columns and labels:
Nucleolin (NCL) = Nucleolin (NCL) (Homo sapiens, UniProt P19338 P19338:2-710); assay: pulldown; 400 nM oligo, with MDM2, 4 C; details: tags: ACROBiosystems NUL-H5253, label: 5'-biotin
Description: (§1) 6 μg/mL recombinant human NCL and 6 μg/mL recombinant human MDM2 were mixed well and incubated at 4° C. for 7 h. Subsequently, 400 nM CRO, AS1411, or iSN04 labeled by biotin at the 5′ end was added, and the mixture was incubated at 4° C. for 6 h. Streptavidin agarose gel beads (purchased from cytiva, Cat. No.: 17511301) were added, and the mixture was further incubated at 4° C. overnight. The gel beads were washed 4 times with a TBST buffer, and an SDS-PAGE protein loading buffer (purchased from Beyotime, Cat. No.: P0015) was added. The mixture was heated to 100° C. and held for 10 min. After centrifugation, the supernatant was collected. The pull-down product was then detected by western blot assay.

MDM2 [1] = target: T1, MDM2 (Homo sapiens, UniProt Q00987 Q00987:1-491); assay: pulldown; NCL present; iSN04 blocks NCL-MDM2 interaction; details: tags: R&D Systems E3-202-050; label: 5'-biotin; weak G4 only with K+
T1 sequence (Q00987 whole entry, one chain of several): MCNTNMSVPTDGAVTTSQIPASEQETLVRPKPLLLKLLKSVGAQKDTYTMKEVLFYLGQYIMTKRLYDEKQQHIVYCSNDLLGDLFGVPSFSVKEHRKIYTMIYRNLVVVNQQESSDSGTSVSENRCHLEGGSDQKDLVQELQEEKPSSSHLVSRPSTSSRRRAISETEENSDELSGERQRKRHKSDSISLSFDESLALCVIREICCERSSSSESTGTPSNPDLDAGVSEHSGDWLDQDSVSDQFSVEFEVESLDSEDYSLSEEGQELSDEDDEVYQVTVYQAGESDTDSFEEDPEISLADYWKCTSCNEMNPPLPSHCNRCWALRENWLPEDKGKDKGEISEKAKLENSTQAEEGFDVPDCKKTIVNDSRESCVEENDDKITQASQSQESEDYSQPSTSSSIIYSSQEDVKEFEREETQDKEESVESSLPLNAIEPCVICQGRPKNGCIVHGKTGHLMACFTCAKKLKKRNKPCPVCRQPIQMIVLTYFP
Description: as §1

MDM2 [2] = target: T1, MDM2; assay: pulldown; NCL present; details: tags: R&D Systems E3-202-050; label: 5'-biotin
Description: as §1

Nucleolin (NCL), sequence (P19338 2-710, one chain of several): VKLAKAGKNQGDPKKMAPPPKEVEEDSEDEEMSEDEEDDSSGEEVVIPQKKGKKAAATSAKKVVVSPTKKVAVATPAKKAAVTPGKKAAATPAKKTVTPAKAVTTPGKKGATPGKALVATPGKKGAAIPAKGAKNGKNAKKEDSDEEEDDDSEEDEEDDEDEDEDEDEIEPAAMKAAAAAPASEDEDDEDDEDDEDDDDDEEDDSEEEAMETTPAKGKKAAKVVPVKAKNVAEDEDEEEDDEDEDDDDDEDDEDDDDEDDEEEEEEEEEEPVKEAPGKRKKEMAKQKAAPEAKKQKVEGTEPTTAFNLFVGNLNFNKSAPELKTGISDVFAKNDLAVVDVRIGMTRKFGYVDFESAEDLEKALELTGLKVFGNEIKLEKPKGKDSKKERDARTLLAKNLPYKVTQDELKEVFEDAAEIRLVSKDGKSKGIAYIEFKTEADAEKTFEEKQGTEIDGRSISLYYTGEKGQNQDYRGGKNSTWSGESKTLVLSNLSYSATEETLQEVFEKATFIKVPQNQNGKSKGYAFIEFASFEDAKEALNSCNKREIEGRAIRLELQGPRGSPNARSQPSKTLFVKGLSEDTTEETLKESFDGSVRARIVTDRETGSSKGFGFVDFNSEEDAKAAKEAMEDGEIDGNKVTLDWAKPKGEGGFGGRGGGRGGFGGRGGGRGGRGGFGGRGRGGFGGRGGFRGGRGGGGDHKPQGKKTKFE

Binder | binding result (Nucleolin (NCL); weak G4 only with K+) | binding result (MDM2 [1]) | binding result (MDM2 [2]) | binding result (Nucleolin (NCL))
AGATTAGGGTGAGGGTGA (ssDNA) [iSN04] | binds | no binding | – | –
CCTCCTCCTCCTTCTCCTCCTCCTCC (ssDNA) [CRO] | – | – | no binding | no binding
